Results on 5 molecules are retold here after patent US20230212319A1, “NOVEL ANTIGEN BINDING DOMAINS AND SYNTHETIC ANTIGEN RECEPTORS INCORPORATING THE SAME” (University of Southern California, priority 2020, published 2023).

The test system of this experiment is target antigen-expressing cell line. In words: Jurkat NFAT-GFP (JNG) assay: induction of NFAT promoter driven GFP expression. It counts as cell-based. The note with it: SAR-expressing JNG cells co-cultured with cell lines expressing their target antigen(s). How it is done:
Induction ofNFAT promoter driven GFP expression. […] Cellular supernatant is collected and assayed for the induction of cytokines (e.g., IL2).
Cellular supernatant is collected and assayed for the induction of cytokines (e.g., IL2).
JNG (Jurkat cells expressing EGFP under an NFAT promoter) were infected with lentiviral vectors encoding different single chain and multi-chain SARs by spinfection in the presence of 8 µg/ml of Polybrene® (Sigma, Catalog no. H9268). The Jurkat-NFAT-GFP cells are engineered in such a way that the IL-2 promoter, which carries NFAT binding sites, is cloned upstream of the GFP gene. These cells have been used to study signaling via TCR and CAR. The different SARs were stably expressed in Jurkat NFAT-GFP cells by lentiviral mediated gene transfer, followed by selection with puromycin or blasticidin. No drug selection was used in case the construct lacked an antibiotic resistance gene. The SAR-expressing Jurkat-NFAT-GFP cells were cocultured with the target cells at E:T ratio of approximately 1:2 for approximately 4 hours to 18 hours. When the interaction between SIRs and their target antigen results in activation of the NFAT pathway, GFP expression is induced. […] GFP expression was monitored by FACS analysis. The Jurkat-NFAT-GFP (parental) cells were used as control. The structure of different constructs can be determined based on their names. […] The sequence of the other constructs in the table can be similarly determined from their names and by referring to the different Tables of this disclosure that provide the names and SEQ ID NO of the different modules. Alternatively, the composition and modular architecture of the different SAR constructs can be determined from their sequences by bioinformatics tools, including using nucleic acid and amino acids homology searches. A SAR is considered positive in the assay in case the SAR expressing Jurkat-NFAT-GFP cells show greater % GFP positive cells when cultured with the target cell line as compared to parental Jurkat-NFAT-GFP cells. […] In general, the number +/-, +, 2+, 3+, 4+, 5+ refer to approximately 5%, 10%, 20%, 30%, 40% and 50% GFP positive cells. The % of GFP induction in the above assay is dependent not only the relative strength of the SAR but also, among other factors, on the relative level of expression of the SAR in the JNG cells and the relative level of expression of the target antigen in the target cell line. To control for the difference in gene transduction efficiency of the different SAR constructs, the experiment was conducted with JNG cells transduced with SAR constructs co-expressing a drug resistance gene (e.g., puromycin or PAC) followed by drug selection to generate a stable population of SAR-expressing cells. It is to be noted that the drug resistance gene (e.g., PAC) in the SAR constructs is optional and in vivo studies were conducted with SAR constructs lacking the PAC gene.

B1: SEQ ID NO: 22099: FHVH attached to TCRa-wt2-opt-6MD via IgCL linker and second FHVH attached to TCRb-wt2-opt-6MD via IgG1-CH1 linker (protein)
chain: MALPVTALLLPLALLLHAARPQVQLVESGGGLVQPGGSLRLSCAASGFTFTNHAMSWVRQAPGKGLELVSSISGNGRTTYYADSVKGRFTISRDISKNTLDLQMNSLRAEDTAVYYCAKDGGETLVDSRGQGTLVTVSSLEGQPKANPTVTLFPPSSEELQANKATLVCLISDFYPGAVTVAWKADGSPVKAGVETTKPSKQSNNKYAASSYLSLTPEQWKSHRSYSCQVTHEGSTVEKTVAPTECSGRADCGFTSESYQQGVLSATILYEILLGKATLYAVLVSALVLMAMVKRKDSRGRAKRSGSGATNFSLLKQAGDVEENPGPTSMDWIWRILFLVGAATGAHSFEEVQLLESGGGLVQPGGSLRLSCAASGFTFSSYAMSWVRQAPGKGLEWVSSISGSGDYIYYADSVKGRFTISRDISKNTLYLQMNSLRAEDTAVYYCAKEGTGANSSLADYRGQGTLVTVSSTRASTKGPSVFPLAPSSKSTSGGTAALGCLVKDYFPEPVTVSWNSGALTSGVHTFPAVLQSSGLYSLSSVVTVPSSSLGTQTYICNVNHKPSNTKVDKRVEPKSCIPEDTFFPSPESSCDVKLVEKSFETDTNLNFQNLSVIGFRILLLKVAGFNLLMTLRLWSSRAKRSGSGVKQTLNFDLLKLAGDVESNPGPSRGHMTEYKPTVRLATRDDVPRAVRTLAAAFADYPATRHTVDPDRHIERVTELQELFLTRVGLDIGKVWVADDGAAVAVWTTPESVEAGAVFAEIGPRMAELSGSRLAAQQQMEGLLAPHRPKEPAWFLATVGVSPDHQGKGLGSAVVLPGVEAAERAGVPAFLETSAPRNLPFYERLGFTVTADVEVPEGPRTWCMTRKPGA
B1: the “GFP induction / activity in JNG assay” value is given as “good activity”.

B2: SEQ ID NO: 22098: FHVH attached to TCRg-6MD via IgCL linker and second FHVH attached to TCRd-6MD via IgG1-CH1 linker (protein)
chain: MALPVTALLLPLALLLHAARPQVQLVESGGGLVQPGGSLRLSCAASGFTFTNHAMSWVRQAPGKGLELVSSISGNGRTTYYADSVKGRFTISRDISKNTLDLQMNSLRAEDTAVYYCAKDGGETLVDSRGQGTLVTVSSLEGQPKANPTVTLFPPSSEELQANKATLVCLISDFYPGAVTVAWKADGSPVKAGVETTKPSKQSNNKYAASSYLSLTPEQWKSHRSYSCQVTHEGSTVEKTVAPTECSPIKTDVITMDPKDNCSKDANDTLLLQLTNTSAYYMYLLLLLKSVVYFAIITCCLLRRTAFCCNGEKSRAKRSGSGATNFSLLKQAGDVEENPGPTSMDWIWRILFLVGAATGAHSFEEVQLLESGGGLVQPGGSLRLSCAASGFTFSSYAMSWVRQAPGKGLEWVSSISGSGDYIYYADSVKGRFTISRDISKNTLYLQMNSLRAEDTAVYYCAKEGTGANSSLADYRGQGTLVTVSSTRASTKGPSVFPLAPSSKSTSGGTAALGCLVKDYFPEPVTVSWNSGALTSGVHTFPAVLQSSGLYSLSSVVTVPSSSLGTQTYICNVNHKPSNTKVDKRVEPKSCEVKTDSTDHVKPKETENTKQPSKSCHKPKAIVHTEKVNMMSLTVLGLRMLFAKTVAVNFLLTAKLFFLRAKRSGSGVKQTLNFDLLKLAGDVESNPGPSRGHMTEYKPTVRLATRDDVPRAVRTLAAAFADYPATRHTVDPDRHIERVTELQELFLTRVGLDIGKVWVADDGAAVAVWTTPESVEAGAVFAEIGPRMAELSGSRLAAQQQMEGLLAPHRPKEPAWFLATVGVSPDHQGKGLGSAVVLPGVEAAERAGVPAFLETSAPRNLPFYERLGFTVTADVEVPEGPRTWCMTRKPGA
For B2, the “GFP induction / activity in JNG assay” value is on record as “best activity”.

B3: SEQ ID NO: 22009: two AABD attached in tandem to one of the two TCR constant chains (protein)
chain: MALPVTALLLPLALLLHAARPLEGKPIPNPLLGLDSTGSGEDLKNVFPPEVAVFEPSKAEIAHTQKATLVCLATGFYPDHVELSWWVNGKEVHSGVCTDPQPLKEQPALNDSRYCLSSRLRVSATFWQNPRNHFRCQVQFYGLSENDEWTQDRAKPVTQIVSAEAWGRADCGITSASYHQGVLSATILYEILLGKATLYAVLVSALVLMAMVKRKDSRGRAKRSGSGATNFSLLKQAGDVEENPGPTSTMDWIWRILFLVGAATGAHSQLQLQESGPGLVKPSETLSLTCTVSGGSVSSSSYYWGWIRQPPGKRLELIGSIYYGGSTYFNPSLKSRVTISVDTSKNQFSLKLSSVTAADTAVYYCAGGDTYGPVGQWPSDYRGQGTLVTVSSGGGGSGGGSFEVQLLESGGGLVQPGGSLRLSCAASGFIFSIYAMSWVRQAPGKGLEWVSGISGSGVNTYYADSVKGRFIISRDNSRNTVYLQMNSLRADDTAVYHCANGKGWDGNTWYEDYRGQGTLVTVSSTREQKLISEEDGSGIQNPDPAVYQLRDSKSSDKSVCLFTDFDSQTNVSQSKDSDVYITDKCVLDMRSMDFKSNSAVAWSNKSDFACANAFNNSIIPEDTFFPSSDVPCDVKLVEKSFETDTNLNFQNLSVIGFRILLLKVAGFNLLMTLRLWSSRAKRSGSGVKQTLNFDLLKLAGDVESNPGPSRGHMTEYKPTVRLATRDDVPRAVRTLAAAFADYPATRHTVDPDRHIERVTELQELFLTRVGLDIGKVWVADDGAAVAVWTTPESVEAGAVFAEIGPRMAELSGSRLAAQQQMEGLLAPHRPKEPAWFLATVGVSPDHQGKGLGSAVVLPGVEAAERAGVPAFLETSAPRNLPFYERLGFTVTADVEVPEGPRTWCMTRKPGA
For B3, the “GFP induction / activity in JNG assay” value is “only weak and inconsistent activity”.

B4: SEQ ID NO: 22010: two AABD attached in tandem to one of the two TCR constant chains (protein)
chain: MALPVTALLLPLALLLHAARPLEGKPIPNPLLGLDSTGSGEDLKNVFPPEVAVFEPSKAEIAHTQKATLVCLATGFYPDHVELSWWVNGKEVHSGVCTDPQPLKEQPALNDSRYCLSSRLRVSATFWQNPRNHFRCQVQFYGLSENDEWTQDRAKPVTQIVSAEAWGRADCGITSASYHQGVLSATILYEILLGKATLYAVLVSALVLMAMVKRKDSRGRAKRSGSGATNFSLLKQAGDVEENPGPTSTMALPVTALLLPLALLLHAARPQLQLQESGPGLVKPSETLALTCNVSGGSISSSSYYWGWIRQPPGKRLEWIGSIYYSGSTYFNPSLKSRVTISVDTSKNQFSLKLSSVTAADTAVYYCAGGDYYGPVGQWPSDYRGQGTLVTVSSGSGGGGSGGGGSFEVQLLESGGGLVQPGGSLRLSCAASGFIFSSYAMSWVRQAPGKGQEWVSGVSGTGVNTYYADSVKGRFTISRDNSKNTLYLQMNSLRAEDTAVYYCASGKGWDSGSWYEDYRGQGTLVTVSSTREQKLISEEDGSGIQNPDPAVYQLRDSKSSDKSVCLFTDFDSQTNVSQSKDSDVYITDKCVLDMRSMDFKSNSAVAWSNKSDFACANAFNNSIIPEDTFFPSSDVPCDVKLVEKSFETDTNLNFQNLSVIGFRILLLKVAGFNLLMTLRLWSSRAKRSGSGVKQTLNFDLLKLAGDVESNPGPSRGHMTEYKPTVRLATRDDVPRAVRTLAAAFADYPATRHTVDPDRHIERVTELQELFLTRVGLDIGKVWVADDGAAVAVWTTPESVEAGAVFAEIGPRMAELSGSRLAAQQQMEGLLAPHRPKEPAWFLATVGVSPDHQGKGLGSAVVLPGVEAAERAGVPAFLETSAPRNLPFYERLGFTVTADVEVPEGPRTWCMTRKPGA
Regarding B4, the “GFP induction / activity in JNG assay” value was “only weak and inconsistent activity”.

B5: SEQ ID NO: 22096: FHVH attached to TCRg-6MD via IgCL linker and second FHVH attached to TCRd-6MD via IgG1-CH1 linker (protein)
chain: MALPVTALLLPLALLLHAARPQLQLQESGPGLVKPSETLSLTCTVSGDSISSGDYYWGWIRQPPGKGLEWIGHIYYSGVTYYNPSLKSRVTISVDTSRNQFSLKLSSVTAADTAVYYCTREDSSNWRSRGQGTLVTVSSLEGQPKANPTVTLFPPSSEELQANKATLVCLISDFYPGAVTVAWKADGSPVKAGVETTKPSKQSNNKYAASSYLSLTPEQWKSHRSYSCQVTHEGSTVEKTVAPTECSPIKTDVITMDPKDNCSKDANDTLLLQLTNTSAYYMYLLLLLKSVVYFAIITCCLLRRTAFCCNGEKSRAKRSGSGATNFSLLKQAGDVEENPGPTSMDWIWRILFLVGAATGAHSFEVQLLESGGGLIQPGGSLRLSCAASGFTFSSHAMTWVRQAPGKGLEWVSAISGSGDYTHYADSVKGRFTISRDNSKNTVYLQMNSLRAEDSAVYYCAKDEDGGSLLGHRGQGTLVTVSSTRASTKGPSVFPLAPSSKSTSGGTAALGCLVKDYFPEPVTVSWNSGALTSGVHTFPAVLQSSGLYSLSSVVTVPSSSLGTQTYICNVNHKPSNTKVDKRVEPKSCEVKTDSTDHVKPKETENTKQPSKSCHKPKAIVHTEKVNMMSLTVLGLRMLFAKTVAVNFLLTAKLFFLRAKRSGSGVKQTLNFDLLKLAGDVESNPGPSRGHMTEYKPTVRLATRDDVPRAVRTLAAAFADYPATRHTVDPDRHIERVTELQELFLTRVGLDIGKVWVADDGAAVAVWTTPESVEAGAVFAEIGPRMAELSGSRLAAQQQMEGLLAPHRPKEPAWFLATVGVSPDHQGKGLGSAVVLPGVEAAERAGVPAFLETSAPRNLPFYERLGFTVTADVEVPEGPRTWCMTRKPGA
As for B5, the “GFP induction / activity in JNG assay” value is listed as “best activity”.
